Source: patent publication US20150329863, “APTAMERS INHIBITING THE ENZYMATIC ACTIVITY OF TYROSINASE” (L V M H RECHERCHE, published 2015)

T1: tyrosinase (endogenous, normal human melanocytes) (Homo sapiens) (UniProt P14679)
T1 sequence: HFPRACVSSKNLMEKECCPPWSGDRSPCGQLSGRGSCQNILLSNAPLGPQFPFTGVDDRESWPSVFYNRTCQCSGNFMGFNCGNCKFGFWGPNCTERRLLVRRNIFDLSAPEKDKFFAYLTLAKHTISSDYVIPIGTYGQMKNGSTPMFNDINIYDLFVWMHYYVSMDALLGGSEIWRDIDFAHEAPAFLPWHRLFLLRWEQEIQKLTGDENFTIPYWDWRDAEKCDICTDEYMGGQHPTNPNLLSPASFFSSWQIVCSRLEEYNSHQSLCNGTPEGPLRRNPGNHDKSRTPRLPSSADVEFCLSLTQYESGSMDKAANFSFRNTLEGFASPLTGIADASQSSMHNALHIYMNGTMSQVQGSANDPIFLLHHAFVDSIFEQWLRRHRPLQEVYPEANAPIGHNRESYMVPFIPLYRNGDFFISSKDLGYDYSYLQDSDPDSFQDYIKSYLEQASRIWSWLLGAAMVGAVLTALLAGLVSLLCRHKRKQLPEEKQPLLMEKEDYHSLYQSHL

T2: tyrosinase (TYR) (Homo sapiens, UniProt P14679 P14679:19-529)
T2 sequence: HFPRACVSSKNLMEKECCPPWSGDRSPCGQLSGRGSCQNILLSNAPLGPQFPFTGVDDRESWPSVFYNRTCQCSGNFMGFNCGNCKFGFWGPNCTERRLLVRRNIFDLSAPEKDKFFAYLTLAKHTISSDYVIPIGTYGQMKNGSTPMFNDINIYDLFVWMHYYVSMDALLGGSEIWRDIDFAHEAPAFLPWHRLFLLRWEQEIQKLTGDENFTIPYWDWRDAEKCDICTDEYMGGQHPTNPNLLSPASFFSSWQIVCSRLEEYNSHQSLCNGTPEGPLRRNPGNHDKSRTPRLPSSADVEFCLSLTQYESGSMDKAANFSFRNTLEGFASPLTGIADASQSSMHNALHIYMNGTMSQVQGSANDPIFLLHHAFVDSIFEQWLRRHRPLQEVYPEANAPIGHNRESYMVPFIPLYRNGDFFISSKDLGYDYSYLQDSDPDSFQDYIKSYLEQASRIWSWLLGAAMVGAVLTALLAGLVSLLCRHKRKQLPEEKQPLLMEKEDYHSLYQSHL


What was measured:
[1] = biological target: T1, tyrosinase (endogenous, normal human melanocytes) (Homo sapiens); assay: cell_activity; settings: 4-200 nM, no dose dependence; 72 h melanocyte treatment, L-DOPA oxidation
tyrosinase (TYR) = biological target: T2, tyrosinase (TYR); assay: SPR; 16 RU at 500 nM and 42 RU at 1 uM tyrosinase on about 1000 RU immobilized biotinylated aptamer; PBS-Mg buffer, 23 C; settings: tags: N-terminal GST tag, Abnova; label: biotin (SPR); predicted long imperfect stem-loop with 5-nt internal loop and 5-nt apical loop
Method: All the experiments were carried out on a Biacore 3000 device with PBS—Mg buffer at 23° C. The biotinylated oligonucleotides—heated at 75° C. for 5 minutes, placed on ice for 5 minutes and then placed at room temperature for at least 5 minutes—were immobilized on streptavidin-coated sensor chips (XanTec bioanalytics). The oligonucleotides were injected at 100 nM for 4 minutes at 5 μl/min to reach 800 to 1000 RU.
Tyrosinase and the GST-His control were injected at 500 nM and 1 μM at a rate of 20 μl/min at 23° C. The same injections were carried out with PBS—Mg buffer and tyrosinase storage buffer to subtract the effects of the buffer from the specific sensorgram.
The binding of this candidate, T10.1, and of truncated versions derived from the full-length candidate (Table 1) was investigated by surface plasmon resonance (SPR). About 1000 resonance units (RU) of biotinylated candidate T10.1 were immobilized and tyrosinase was injected at 500 nM or 1 μM. Signals of 16 and 42 RU were detected for 500 nM and 1 μM, respectively, indicating interaction between candidate T10.1 and tyrosinase (FIG. 2).

Molecule | activity [1] | binding result (tyrosinase (TYR))
GCCTGTTGTGAGCCTCCTGTCGAANNNNNNNNNNNNNNNNNNNNNNNNNNNNNNTTGAGCGTTTATTCTTGTCTCCC [round 10 population] | > 75 % inhibition | 
T10.1 (ssDNA) DNA: GCCTGTTGTGAGCCTCCTGTCGAACGCAATGGGCGCAGATTGGAAGGCCTAGCATTGAGCGTTTATTCTTGTCTCCC |  | binds
